System: Escherichia coli TOP10
Assay: shrunken log2 fold change of peptide-encoding DNA abundance (4.5 h post-induction vs induction); higher = less antimicrobial activity (less host growth inhibition)
Conditions: time post-induction: 4.5 h; library: site-saturation at positions 5, 18, 19, 20
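Further: peptides expressed intracellularly from a pBAD plasmid library in pooled LB shake-flask culture, induced with 0.3% L-arabinose, DNA abundance read by NGS, three biological replicates, DESeq2 with apeglm shrinkage.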

Sequence | shrunken log2 fold change
RRIRGRPPRLPRPRPRPDMYPRP | 0.0675
RRIRTRPPRLPRPRPRPNQCPRP | 0.00866
RRIRDRPPRLPRPRPRPMELPRP | 0.0119
RRIRTRPPRLPRPRPRPVCPPRP | 0.186
RRIRKRPPRLPRPRPRPCRWPRP | -0.0708
RRIRPRPPRLPRPRPRPRSEPRP | 0.564
RRIRVRPPRLPRPRPRPGASPRP | 0.583
RRIRCRPPRLPRPRPRPMLTPRP | -0.0319
RRIRLRPPRLPRPRPRPANQPRP | 0.137
RRIRVRPPRLPRPRPRPQNYPRP | -0.285
RRIRPRPPRLPRPRPRPEIYPRP | 0.0694
RRIRGRPPRLPRPRPRPNIGPRP | 0.138
RRIRMRPPRLPRPRPRPHVRPRP | 0.231
RRIRWRPPRLPRPRPRPMNQPRP | -0.33
RRIRYRPPRLPRPRPRPSTMPRP | -0.434
RRIRIRPPRLPRPRPRPLEDPRP | -0.0413
RRIRVRPPRLPRPRPRPYTCPRP | -0.164
RRIRCRPPRLPRPRPRPRMWPRP | 0.0419
RRIRLRPPRLPRPRPRPFQCPRP | 0.000653
RRIRGRPPRLPRPRPRPRSHPRP | 0.239

Sequence | shrunken log2 fold change
RRIRLRPPRLPRPRPRPQLMPRP | 0.0272
RRIRRRPPRLPRPRPRPHQLPRP | -0.225
RRIRHRPPRLPRPRPRPYCWPRP | -0.352
RRIRSRPPRLPRPRPRPSQDPRP | -0.296
RRIRIRPPRLPRPRPRPPSTPRP | 0.0126
RRIRTRPPRLPRPRPRPKRCPRP | 0.0203
RRIRIRPPRLPRPRPRPWWRPRP | -0.0114
RRIRCRPPRLPRPRPRPTTAPRP | 0.166
RRIRQRPPRLPRPRPRPKQAPRP | 0.0135
RRIRHRPPRLPRPRPRPIEQPRP | -0.0277
RRIRHRPPRLPRPRPRPGLLPRP | -0.0335
RRIRHRPPRLPRPRPRPGHLPRP | -0.0129
RRIRRRPPRLPRPRPRPPQVPRP | 1.33
RRIRIRPPRLPRPRPRPHYRPRP | -0.204
RRIRCRPPRLPRPRPRPSVTPRP | -0.288
RRIRLRPPRLPRPRPRPRPLPRP | 0.579
RRIRVRPPRLPRPRPRPFTMPRP | -0.368
RRIRMRPPRLPRPRPRPDSMPRP | 0.025
RRIRHRPPRLPRPRPRPMGWPRP | 0.317
RRIRTRPPRLPRPRPRPINWPRP | -0.0841

Sequence | shrunken log2 fold change
RRIRQRPPRLPRPRPRPKRAPRP | 0.0973
RRIRHRPPRLPRPRPRPIQHPRP | -0.237
RRIRVRPPRLPRPRPRPPGYPRP | 0.0333
RRIRRRPPRLPRPRPRPWVMPRP | -0.123
RRIRWRPPRLPRPRPRPYICPRP | -0.329
RRIRQRPPRLPRPRPRPTTRPRP | 0.215
RRIRIRPPRLPRPRPRPWQTPRP | 0.0238
RRIRRRPPRLPRPRPRPVWFPRP | 0.0857
RRIRDRPPRLPRPRPRPMDKPRP | -0.0384
RRIRWRPPRLPRPRPRPVLLPRP | 0.0146
RRIRARPPRLPRPRPRPPKSPRP | 0.658
RRIRARPPRLPRPRPRPPNKPRP | 0.23
RRIRRRPPRLPRPRPRPIRWPRP | 0.0197
RRIRWRPPRLPRPRPRPRCCPRP | 0.448
RRIRCRPPRLPRPRPRPKCGPRP | 0.0778
RRIRERPPRLPRPRPRPHMYPRP | -0.577
RRIRNRPPRLPRPRPRPGTPPRP | 0.608
RRIRARPPRLPRPRPRPLHSPRP | 0.0941
RRIRARPPRLPRPRPRPLSFPRP | 0.0158
RRIRVRPPRLPRPRPRPFWKPRP | 0.0154

— the supplement of paper PMC9112550, “Optimization of the antimicrobial peptide Bac7 by deep mutational scanning” (BMC Biology, 2022)
